Test results taken from paper PMC1794554, “Multiplatform genome-wide identification and modeling of functional human estrogen receptor binding sites”.
Positions count from the first letter of the chain named.

How the values were obtained:
Conditions in all cases: chain copies: 2; label: 5'-biotin on the ERE strand; blunt
[1] = target: T1, estrogen receptor alpha (ERα), purified (UniProt P03372 1-595); test: SPR; SPR: 40 mM HEPES-KOH pH 7.4, 10 mM MgCl2, 200 mM KCl, 0.2% Triton X-100, 2 mM DTT, room temperature; ERα 58-708 nM (relative binding averaged over concentrations)
[2] = target: T1, estrogen receptor alpha (ERα), purified; test: SPR; binding disrupted by about 40%; SPR: 40 mM HEPES-KOH pH 7.4, 10 mM MgCl2, 200 mM KCl, 0.2% Triton X-100, 2 mM DTT, room temperature; ERα 58-708 nM (relative binding averaged over concentrations)
[3] = target: T1, estrogen receptor alpha (ERα), purified; test: SPR; not significantly perturbed; SPR: 40 mM HEPES-KOH pH 7.4, 10 mM MgCl2, 200 mM KCl, 0.2% Triton X-100, 2 mM DTT, room temperature; ERα 58-708 nM (relative binding averaged over concentrations)

T1 sequence (P03372 whole entry): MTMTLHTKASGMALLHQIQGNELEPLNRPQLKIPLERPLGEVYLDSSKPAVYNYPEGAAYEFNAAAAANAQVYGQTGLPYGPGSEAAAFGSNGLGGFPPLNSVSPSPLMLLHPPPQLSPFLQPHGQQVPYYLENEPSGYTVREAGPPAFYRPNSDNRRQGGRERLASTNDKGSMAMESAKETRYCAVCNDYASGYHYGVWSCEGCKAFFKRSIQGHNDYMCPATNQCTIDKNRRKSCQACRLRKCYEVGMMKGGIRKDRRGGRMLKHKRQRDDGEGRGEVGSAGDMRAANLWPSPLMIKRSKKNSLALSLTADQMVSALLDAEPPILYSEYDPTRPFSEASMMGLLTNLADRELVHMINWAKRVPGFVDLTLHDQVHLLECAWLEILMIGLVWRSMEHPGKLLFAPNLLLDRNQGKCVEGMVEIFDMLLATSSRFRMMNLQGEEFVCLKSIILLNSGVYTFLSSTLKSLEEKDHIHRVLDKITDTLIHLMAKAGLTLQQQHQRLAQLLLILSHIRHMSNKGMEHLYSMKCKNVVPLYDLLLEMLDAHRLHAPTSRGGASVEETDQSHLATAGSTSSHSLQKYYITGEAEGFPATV

B1: GREB1 ERE wildtype (dsDNA)
DNA 1: TGTGGCAACTGGGTCATTCTGACCTAGAAGCAAC
DNA 2: GTTGCTTCTAGGTCAGAATGACCCAGTTGCCACA
[1]
  binding signal: 100 % of wild type

B2: mutant 1 (conserved 3' G to A) (dsDNA)
DNA 1: B1 DNA 1 with G27A
DNA 2: B1 DNA 2 with C8T
[2]
  binding signal: ~60 % of wild type

B3: mutant 4 (outside the 3-bp flank, C to G) (dsDNA)
DNA 1: B1 DNA 1 with C6G
DNA 2: B1 DNA 2 with G29C
[3]
  binding result: binds
